# Laboratory results from patent publication EP1137786B1.
# What was measured:
# [1] = target: CCR5 (UniProt P51681); test: cell-based or functional assay
# [2] = target: CXCR4 (UniProt P61073); test: cell-based or functional assay
# [3] = target: CCR5 (UniProt P51681); test: flow cytometry on L1.2/R5 cells
# Chain of CCR5 (P51681 whole entry): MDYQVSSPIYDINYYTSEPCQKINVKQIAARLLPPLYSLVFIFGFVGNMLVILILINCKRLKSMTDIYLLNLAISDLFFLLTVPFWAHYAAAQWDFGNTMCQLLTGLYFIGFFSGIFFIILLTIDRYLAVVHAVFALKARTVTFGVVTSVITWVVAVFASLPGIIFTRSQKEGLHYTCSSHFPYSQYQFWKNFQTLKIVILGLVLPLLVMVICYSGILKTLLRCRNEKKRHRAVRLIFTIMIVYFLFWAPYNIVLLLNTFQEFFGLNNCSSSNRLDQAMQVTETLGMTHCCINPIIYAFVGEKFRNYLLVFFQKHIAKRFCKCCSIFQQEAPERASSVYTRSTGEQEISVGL
# Chain of CXCR4 (P61073 whole entry): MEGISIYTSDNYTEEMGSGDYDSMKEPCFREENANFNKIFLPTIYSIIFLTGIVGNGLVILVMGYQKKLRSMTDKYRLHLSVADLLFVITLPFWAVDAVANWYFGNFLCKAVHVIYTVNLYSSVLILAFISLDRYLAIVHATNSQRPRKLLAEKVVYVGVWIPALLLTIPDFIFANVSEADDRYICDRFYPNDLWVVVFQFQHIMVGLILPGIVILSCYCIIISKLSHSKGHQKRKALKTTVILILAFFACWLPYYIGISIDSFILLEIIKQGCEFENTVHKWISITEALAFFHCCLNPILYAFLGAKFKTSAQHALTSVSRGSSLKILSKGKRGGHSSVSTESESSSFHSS
Substance,"ID90, neutralization of HIV 89.6 on U373/CD4/CCR5 cells [1] [µg/mL]","ID90, neutralization of HIV ADA on U373/CD4/CCR5 cells [1] [µg/mL]","ID90, neutralization of HIV BaL on U373/CD4/CCR5 cells [1] [µg/mL]","ID90, neutralization of HIV 89.6 on U373/CD4/CXCR4 cells [2] [µg/mL]","ID90, neutralization of HIV 2005 on U373/CD4/CXCR4 cells [2] [µg/mL]","ID90, neutralization of HIV 2044 on U373/CD4/CXCR4 cells [2] [µg/mL]","fold higher concentration needed to approach saturation binding, against FLSC [3] [fold]"
gp120-CD4-IgG1 chimeric polypeptide (from UniProt P01730 26-208) (Fc fusion),3.56,4.58,3.1,> 10,> 10,> 10,–
truncated single chain (TcSC) gp120-CD4 chimeric polypeptide (from UniProt P01730 26-208),–,–,–,–,–,–,10
